Measurements reported in patent publication US20160116468A1.

Assays:
[1] = target: endogenous EGFR expressed in COS7 cells; assay: diffusion coefficient change of endogenous EGFR (Alexa Fluor 647 Fab of mAb 199.12 as probe) in a COS7 cell, 20 µg/ml cetuximab
[2] = target: endogenous EGFR expressed in COS7 cells; assay: diffusion coefficient of endogenous EGFR after against before cetuximab, COS7 cells
[3] = target: endogenous EGFR expressed in COS7 cells; assay: diffusion coefficient change of endogenous EGFR (labelled Fab probe), COS7 cells

In the case of cetuximab (antibody), the change in diffusion coefficient (%) [1] is reported as 40%, the Dc2 value as percent of Dc1 value [2] is reported as 60% and the change in diffusion coefficient (%) [3] is reported as 40%.
